{"source": "paper doi:10.1101/2025.05.07.652675", "about": "(bioRxiv, 2025)", "binders": {"B1": {"name": "6×His-ZapC (natural protein)", "chain": "not shown"}, "B2": {"name": "ZapC (untagged) (natural protein)", "chain": "not shown"}, "B3": {"name": "SUMO-FtsZ^316-383 (domain or fragment)", "chain": "GMDKRPEITLVTNKQVQQPVMDRYQQHGMAPLTQEQKPVAKVVNDNAPQTAKEPDYLDIPAFLRKQAD"}, "B4": {"name": "FtsZ (wild type, untagged) (natural protein)", "chain": "MFEPMELTNDAVIKVIGVGGGGGNAVEHMVRERIEGVEFFAVNTDAQALRKTAVGQTIQIGSGITKGLGAGANPEVGRNAADEDRDALRAALEGADMVFIAAGMGGGTGTGAAPVVAEVAKDLGILTVAVVTKPFNFEGKKRMAFAEQGITELSKHVDSLITIPNDKLLKVLGRGISLLDAFGAANDVLKGAVQGIAELITRPGLMNVDFADVRTVMSEMGYAMMGSGVASGEDRAEEAAEMAISSPLLEDIDLSGARGVLVNITAGFDLRLDEFETVGNTIRAFASDNATVVIGTSLDPDMNDELRVTVVATGIGMDKRPEITLVTNKQVQQPVMDRYQQHGMAPLTQEQKPVAKVVNDNAPQTAKEPDYLDIPAFLRKQAD"}, "B5": {"name": "FtsZ^D360Y (untagged) (natural protein)", "chain": "B4 chain with D360Y"}, "B6": {"name": "FtsZ^F285S (untagged) (natural protein)", "chain": "B4 chain with F285S"}, "B7": {"name": "FtsZ^I323L (untagged) (natural protein)", "chain": "B4 chain with I323L"}, "B8": {"name": "FtsZ^A376T (untagged) (natural protein)", "chain": "B4 chain with A376T"}, "B9": {"name": "FtsZ^1-370 (domain or fragment)", "chain": "MFEPMELTNDAVIKVIGVGGGGGNAVEHMVRERIEGVEFFAVNTDAQALRKTAVGQTIQIGSGITKGLGAGANPEVGRNAADEDRDALRAALEGADMVFIAAGMGGGTGTGAAPVVAEVAKDLGILTVAVVTKPFNFEGKKRMAFAEQGITELSKHVDSLITIPNDKLLKVLGRGISLLDAFGAANDVLKGAVQGIAELITRPGLMNVDFADVRTVMSEMGYAMMGSGVASGEDRAEEAAEMAISSPLLEDIDLSGARGVLVNITAGFDLRLDEFETVGNTIRAFASDNATVVIGTSLDPDMNDELRVTVVATGIGMDKRPEITLVTNKQVQQPVMDRYQQHGMAPLTQEQKPVAKVVNDNAPQTAKEPD"}}, "key": {"[1]": {"target": "B4", "assay": "BLI"}, "[2]": {"target": "B6", "assay": "BLI"}, "[3]": {"target": "B7", "assay": "co-sedimentation"}, "[4]": {"target": "B5", "assay": "co-sedimentation"}, "[5]": {"target": "B8", "assay": "co-sedimentation"}, "[6]": {"target": "T1, SUMO-FtsZ (6×His-SUMO fusion of full length FtsZ) (E. coli, UniProt P0A9A6 1-383)", "T1 sequence": "B4 chain", "assay": "BLI"}, "[7]": {"target": "B2", "assay": "BLI"}, "[8]": {"target": "6×His-ZapC F30D K94D double mutant (E. coli, UniProt P75862 1-180, F30D | K94D)", "assay": "BLI"}, "[9]": {"target": "the molecule itself", "assay": "sedimentation of polymers by ultracentrifugation"}, "[10]": {"target": "the molecule itself", "assay": "negative stain electron microscopy"}, "[11]": {"target": "B1", "assay": "BLI"}}, "note": "Positions count from the first letter of the chain named. Names and notes keep the numbering of the source."}
{"binder": "B1", "values": [{"measurement": "Kd", "setting": "[1]", "result": 0.39, "unit": "µM"}, {"measurement": "Kd", "setting": "[2]", "result": 6.37, "unit": "µM"}, {"measurement": "binding result", "setting": "[3]", "result": "binds"}, {"measurement": "binding result", "setting": "[4]", "result": "binds"}, {"measurement": "binding result", "setting": "[5]", "result": "binds"}]}
{"binder": "B2", "values": [{"measurement": "Kd", "setting": "[6]", "result": 1.5, "unit": "µM"}]}
{"binder": "B3", "values": [{"measurement": "Kd", "setting": "[7]", "result": 10, "unit": "µM"}]}
{"binder": "B4", "values": [{"measurement": "Kd relative to wild-type ZapC (times higher)", "setting": "[8]", "result": 12, "unit": "times"}, {"measurement": "binding result", "setting": "[9]", "result": "binds"}]}
{"binder": "B5", "values": [{"measurement": "binding result", "setting": "[10]", "result": "binds"}]}
{"binder": "B6", "values": [{"measurement": "binding result", "setting": "[9]", "result": "binds"}]}
{"binder": "B7", "values": [{"measurement": "binding result", "setting": "[10]", "result": "binds"}]}
{"binder": "B8", "values": [{"measurement": "binding result", "setting": "[10]", "result": "binds"}]}
{"binder": "B9", "values": [{"measurement": "binding affinity relative to wild-type FtsZ (fold lower)", "setting": "[11]", "result": "~3", "unit": "fold"}]}
